Laboratory results from patent publication US10428327B2, “Compositions and methods for enhancing homologous recombination” (LIFE TECHNOLOGIES CORPORATION, priority 2016, dated 2019).
Oligonucleotides are written 5' to 3', each unit as a sugar letter and its base; * is a phosphorothioate linkage, no mark a phosphodiester; rarer units and linkages stand in square brackets, end groups in braces. Plain capitals give the bases only. d = 2'-deoxy (DNA)

T1: DNA ligase IV (Homo sapiens, UniProt P49917)
T1 sequence (P49917 1-911): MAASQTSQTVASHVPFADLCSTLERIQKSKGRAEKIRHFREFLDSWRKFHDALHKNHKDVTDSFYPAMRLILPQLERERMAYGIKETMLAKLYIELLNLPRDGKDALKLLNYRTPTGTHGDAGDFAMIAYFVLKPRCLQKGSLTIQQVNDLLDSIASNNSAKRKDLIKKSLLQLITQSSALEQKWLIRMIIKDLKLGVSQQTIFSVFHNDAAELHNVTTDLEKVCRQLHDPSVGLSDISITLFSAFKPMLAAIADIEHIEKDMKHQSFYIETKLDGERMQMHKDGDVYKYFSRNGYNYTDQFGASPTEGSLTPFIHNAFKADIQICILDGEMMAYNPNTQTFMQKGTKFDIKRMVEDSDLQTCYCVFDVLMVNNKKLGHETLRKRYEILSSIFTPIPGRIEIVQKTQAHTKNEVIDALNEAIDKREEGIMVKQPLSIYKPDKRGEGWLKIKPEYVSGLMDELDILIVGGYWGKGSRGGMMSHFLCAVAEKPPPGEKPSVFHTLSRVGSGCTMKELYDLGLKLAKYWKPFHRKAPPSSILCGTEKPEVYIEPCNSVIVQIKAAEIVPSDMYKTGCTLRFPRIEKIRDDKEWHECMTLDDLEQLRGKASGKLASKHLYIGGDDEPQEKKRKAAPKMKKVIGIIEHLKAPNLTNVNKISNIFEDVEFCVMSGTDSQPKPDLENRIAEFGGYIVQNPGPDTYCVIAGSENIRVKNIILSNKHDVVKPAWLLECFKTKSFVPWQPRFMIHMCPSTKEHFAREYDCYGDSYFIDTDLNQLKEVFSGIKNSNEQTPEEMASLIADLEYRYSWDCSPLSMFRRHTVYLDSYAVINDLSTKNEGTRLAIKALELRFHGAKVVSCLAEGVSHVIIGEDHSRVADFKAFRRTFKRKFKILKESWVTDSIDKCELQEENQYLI

B1: 15-3′: dsDNA donor with 15 nucleotide 3′ overhangs, annealed SEQ ID 83 and 84 (nucleic acid)
chain 1: dG*dA*dCdTdAdCdAdAdAdGdAdCdGdAdTdGdAdCdGdAdCdAdAdGdAdAdTdTdCdTdTdAdCdGdGdCdGdTdGdCdAdGdT*dG*dC
chain 2: dA*dA*dGdAdAdTdTdCdTdTdGdTdCdGdTdCdAdTdCdGdTdCdTdTdTdGdTdAdGdTdCdGdGdTdCdAdGdGdGdTdGdGdTdC*dA*dC
modifications: further chemistry not fully specified
B2: 30-5′: dsDNA donor with 30 nucleotide 5′ overhangs, annealed SEQ ID 85 and 86 (nucleic acid)
chain 1: dG*dT*dGdCdCdCdTdGdGdCdCdCdAdCdCdCdTdCdGdTdGdAdCdCdAdCdCdCdTdGdAdCdCdGdAdCdTdAdCdAdAdAdGdAdCdGdAdTdGdAdCdGdAdCdAdAdGdAdAdTdTdC*dT*dT
chain 2: dG*dT*dGdGdTdCdGdGdGdGdTdAdGdCdGdGdCdTdGdAdAdGdCdAdCdTdGdCdAdCdGdCdCdGdTdAdAdGdAdAdTdTdCdTdTdGdTdCdGdTdCdAdTdCdGdTdCdTdTdTdGdTdAdG*dT*dC
modifications: Two annealed DNA oligonucleotides with 5' overhangs, further chemistry not fully specified
B3: 15-5′: dsDNA donor with 15 nucleotide 5′ overhangs, annealed SEQ ID 81 and 82 (nucleic acid)
chain 1: dG*dT*dGdAdCdCdAdCdCdCdTdGdAdCdCdGdAdCdTdAdCdAdAdAdGdAdCdGdAdTdGdAdCdGdAdCdAdAdGdAdAdTdTdC*dT*dT
chain 2: dG*dC*dAdCdTdGdCdAdCdGdCdCdGdTdAdAdGdAdAdTdTdCdTdTdGdTdCdGdTdCdAdTdCdGdTdCdTdTdTdGdTdAdG*dT*dC
modifications: Two annealed DNA oligonucleotides with 5' overhangs, further chemistry not fully specified
B4: 6-5′: dsDNA donor with 6 nucleotide 5′ overhangs, annealed SEQ ID 77 and 78 (nucleic acid)
chain 1: dC*dT*dGdAdCdCdGdAdCdTdAdCdAdAdAdGdAdCdGdAdTdGdAdCdGdAdCdAdAdGdAdAdTdTdC*dT*dT
chain 2: dC*dG*dCdCdGdTdAdAdGdAdAdTdTdCdTdTdGdTdCdGdTdCdAdTdCdGdTdCdTdTdTdGdTdAdG*dT*dC
modifications: Two annealed DNA oligonucleotides with 5' overhangs, further chemistry not fully specified
B5: 6-3′: dsDNA donor with 6 nucleotide 3′ overhangs, annealed SEQ ID 79 and 80 (nucleic acid)
chain 1: GACTACAAAGACGATGACGACAAGAATTCTTACGGCG
chain 2: AAGAATTCTTGTCGTCATCGTCTTTGTAGTCGGTCAG
modifications: chemistry not fully specified
B6: blunt: blunt-end dsDNA donor, FLAG tag plus EcoRI site, annealed SEQ ID 75 and 76 (nucleic acid)
chain 1: dG*dA*dCdTdAdCdAdAdAdGdAdCdGdAdTdGdAdCdGdAdCdAdAdGdAdAdTdTdC*dT*dT
chain 2: dA*dA*dGdAdAdTdTdCdTdTdGdTdCdGdTdCdAdTdCdGdTdCdTdTdTdGdTdAdG*dT*dC
modifications: annealed double-stranded DNA donor, further chemistry not fully specified

How the values were obtained:
rabbit embryos = conditions: in vitro and in vivo; cited from earlier work
HEK293T cells = conditions: synchronization at M phase prior to nucleofection; cited from earlier work
hESCs = conditions: synchronization at M phase prior to nucleofection; cited from earlier work
DNA ligase IV = target: T1, DNA ligase IV; conditions: cited from earlier work
[1] = test system: eBFP locus in HEK293 cells expressing eBFP; test: EcoRI restriction digestion of PCR-amplified eBFP locus (FLAG tag/EcoRI insertion); format: cell-based; conditions: 48 hours
Description: (§1) FIG. 11. Insertion of a FLAG tag along with an EcoRI site using dsDNA donor with single-stranded overhangs. (A) Various donor DNA molecules containing a 30-base FLAG tag along with an EcoRI site were designed and synthesized, including single-stranded DNA donor (ssDNA), blunt-end dsDNA donor (blunt), dsDNA donor with 5′ overhang (5′), dsDNA donor with 3′ overhang (3′). The length of overhangs varied from 6 nucleotides (6), 15 nucleotides (15) to 30 nucleotides (30). The 3′ and 5′ ends of the oligonucleotides harbored two consecutive phosphorothioate-modified bases (Table 4). The short dsDNA donors with and without overhangs were prepared by annealing two short DNA oligonucleotides. […] At 48 hours post transfection, the eBFP locus was PCR-amplified. The resulting PCR fragments were analyzed by the genomic cleavage and detection assays to determine the percentage of Indel or subjected to restriction digestion with EcoRI to determine the percentage of digestion. (B) Length of 3′ overhang. […] Alternatively, a dsDNA donor with 30-base 3′ overhang but without phosphorothioate modification (30-3′n) was used. The percentage of digestion with EcoRI was determined at 48 hours post transfection. (C) Dose effect. […] The eBFP loci were PCR-amplified. The resulting PCR fragments were analyzed by EcoRI digest. (D) Sequencing verification. The PCR fragments were cloned into E. coli and 192 clones were randomly picked for sequencing. The relative percentage of wild type (wt), NHEJ, and HDR clones derived from either ssDNA donor (ssDNA) or dsDNA with 3′ overhangs (3′ overhang) was plotted. The white rectangles represented the population of clones that contained the insert but with a point mutation. Examples of edited clones were shown in (E) (not representing the actual percentages of NHEJ and HDR). The underlined sequences represented the FLAG tag along with an RI site. FIG. 11 discloses SEQ ID NOs: 15-24, respectively, from top to bottom.
To create homologous recombination (HR) assays, a series of gRNAs flanking the insertion site within the EmGFP gene were designed and synthesized (Table 4). Each individual gRNA was combined with GENEART™ […]™ Cas9 Nuclease to form the Cas9 protein/gRNA ribonucleoprotein complexes (Cas9 RNPs). The Cas9 RNPs were then used to transfect cells via NEON® electroporation. The genomic cleavage efficiency was then evaluated using the GENEART® Genomic Cleavage Detection kit at 48 hours post transfection. The gRNAs with highest editing efficiencies and also in close proximity to the insertion site were selected for the subsequent HR assays. For donor design of a single-stranded oligonucleotide, typically the mutation site was positioned at the center flanked by 30 to 50 nucleotides on each side. For asymmetric donor design, 30 nucleotides were placed on either the left or right arm and then 50 or 67 nucleotides on the right or left arm respectively, in both PAM and non-PAM strands. For design of a dsDNA oligonucleotide with single-stranded overhangs, the insertion element was overlapped in the center flanked by various lengths of ssDNA oligonucleotide on each side. By annealing two single-stranded oligonucleotides at 95° C. for 3 minutes, dsDNA donor molecules with either a 5′ protrusion or a 3′ protrusion were generated. To measure homologous recombination efficiency, the donor DNA was either co-transfected with Cas9 RNPs or delivered sequentially into cells via electroporation. At 48 hours post transfection, the gain of EmGFP function in reporter cell lines was determined by flow cytometric analysis with an Attune® NxT Acoustic Focusing Cytometer (Thermo Fisher Scientific). Alternatively, the genomic loci were PCR-amplified using the corresponding primers and then subjected to GENEART® Genomic Cleavage Detection assay or restriction digestion. The resulting PCR products were also subjected to TOPO cloning. Typically, 96 colonies were randomly picked for sequencing. […]

[2] = test system: eBFP locus in HEK293 cells expressing eBFP; test: Genomic cleavage and detection assay at eBFP locus after Cas9 RNP and FLAG/EcoRI donor; format: cell-based; conditions: sequential delivery, 48 hours post transfection
Description: as §1
The genomic cleavage efficiency was measured by GENEART® Genomic Cleavage Detection kit according to manufacturer's instructions. The primer sequences for PCR amplification of each genomic locus are described in Table 4. Cells were analyzed at 48 to 72 hours post transfection. The cleavage efficiencies were calculated based on the relative agarose gel band intensity, which were quantified using an […]® gel documentation system running […]®, Version 3.4.0.0. ProteinSimple (San Jose, Calif., USA).
To extend this concept, we hypothesized that a dsDNA donor harboring single-stranded overhangs would facilitate HDR to higher levels than with blunt ends. To test this hypothesis, we designed and generated a series of donor molecules with either blunt end, 5′ end protrusion or 3′ end protrusion by annealing two small single-stranded oligonucleotides. A single-stranded DNA donor was used as a control. The 5′ and 3′ ends of oligonucleotides were protected with two consecutive phosphorothioate-modified bases (Table 3). For proof of concept, we inserted a 30 nucleotide FLAG epitope tag along with an EcoRI site into the BFP gene stably expressed in HEK293 cells. The gRNA was designed to target the top DNA strand. The length of single-stranded overhangs varied from 6 nucleotides to 30 nucleotides. The oligonucleotides were denatured and re-annealed prior to transfection forming the structures described in FIG. 11A. […] Co-delivery of Cas9 RNPs and donor DNA gave lower HDR efficiencies. At 48 hours post transfection, the genomic locus was PCR-amplified and the editing efficiencies were determined using a GCD assay. […] When the PCR fragments were subjected to restriction digestion with EcoRI to identify properly inserted constructs, only the donor DNA molecules containing 30-base single-stranded overhangs at the 3′ ends produced the expected digested fragments (30-3′ in FIG. 11, panel A). […]

[3] = FIG. 11A, donor configurations, sequential delivery

Molecule	Avg (% digestion) [1, 3] [%]	Avg (% Indels) [2] [%]	further results
O=C(Nc1ccc(Br)cc1)c1ccc(Br)c(S(=O)(=O)NCc2ccccc2)c1 [RS-1]	–	–	increased knock-in efficiency (rabbit embryos): 2-5 fold
COC(=O)Nc1nc2ccc(C(=O)c3cccs3)cc2[nH]1 [nocodazole]	–	–	HDR (HEK293T cells): up to 38%; HDR (hESCs): ≤ 1.6%
Scr7	–	–	increase in HDR efficiency (DNA ligase IV): up to 19 fold
B1	0.50	81.00	Avg (% digestion) ([1]; FIG. 11B, length of 3′ overhang): 0.8%
B2	1.00	80.00	–
B3	0.00	69.50	–
B4	0.00	56.50	–
B5	0.00	78.50	–
B6	0.00	68.50	–
